Assay [1] addresses T1, Biotinylated C. elegans DPY19 (CeDPY19) with a C-terminal Avitag (Caenorhabditis elegans (strain not …, UniProt P34413, biotin (enzymatic, BirA) on the Avitag)).
T1 construct: C. elegans DPY19 (CeDPY19); also called biotinylated CeDPY19; target; not shown: Avitag, C-terminal, kept
Nature of the assay: ELISA; multipoint protein ELISA; 30 nM biotinylated CeDPY19 immobilised on a neutravidin-coated plate, threefold serial dilutions of purified Fab from 4 uM, 20 min, 4 °C; 20 mM HEPES pH 7.4, 150 mM NaCl, 0.01% LMNG, 0.001% CHS, 0.5% BSA; detected with HRP-protein L. The note with it: both partners purified. Background: An ELISA detects its analyte on a solid surface through an enzyme-linked reagent.

Assay [2] concerns the target T2, C. elegans DPY19 (CeDPY19), tryptophan C-mannosyltransferase, with a C-terminal FLAG3 tag (C. elegans, UniProt P34413 1-683).
T2 construct: C. elegans DPY19 (CeDPY19), synthetic gene construct; Eluted from the FLAG gel with FLAG peptide; no cleavage of the tag is described; also called CMT
T2 sequence: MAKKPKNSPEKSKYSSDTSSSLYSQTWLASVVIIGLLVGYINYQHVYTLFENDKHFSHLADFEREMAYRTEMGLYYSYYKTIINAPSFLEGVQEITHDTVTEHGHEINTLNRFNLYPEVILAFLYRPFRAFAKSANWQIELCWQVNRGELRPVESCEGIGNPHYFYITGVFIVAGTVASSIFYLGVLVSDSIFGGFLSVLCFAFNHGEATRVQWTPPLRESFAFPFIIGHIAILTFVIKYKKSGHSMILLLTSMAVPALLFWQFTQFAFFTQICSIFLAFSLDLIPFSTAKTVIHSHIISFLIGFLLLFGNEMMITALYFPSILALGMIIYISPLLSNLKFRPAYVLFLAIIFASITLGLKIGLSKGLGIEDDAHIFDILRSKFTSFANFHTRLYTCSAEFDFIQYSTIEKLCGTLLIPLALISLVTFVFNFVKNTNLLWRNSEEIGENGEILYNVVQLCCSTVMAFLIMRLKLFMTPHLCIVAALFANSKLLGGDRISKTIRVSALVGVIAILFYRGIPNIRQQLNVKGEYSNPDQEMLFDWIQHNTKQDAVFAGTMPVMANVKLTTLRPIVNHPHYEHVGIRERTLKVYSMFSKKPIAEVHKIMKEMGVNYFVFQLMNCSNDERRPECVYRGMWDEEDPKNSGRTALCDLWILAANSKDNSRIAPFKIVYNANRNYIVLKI
Nature of the assay: cryo-EM structure; CeDPY19-CMT2-Fab-anti-Fab Nb complex (35 uM) with 1 mM acceptor peptide WEHI-1886493, 1-2 h on ice. The note with it: both partners purified.

Square brackets hold non-standard residues; d marks the D form. Pra = C#CC[C@H](N)C(=O)O

By EC50 is commonly meant the concentration needed to bring the measured effect to its halfway point.

B1: CMT2-Fab, synthetic Fab selected by phage display against CeDPY19 (Fab, V domains shown)
VH: EVQLVESGGGLVQPGGSLRLSCAASGFNISSSSIHWVRQAPGKGLEWVASISSSYGYTSYADSVKGRFTISADTSKNTAYLQMNSLRAEDTAVYYCARSSSVYWSWWGYSAFDYWGQGTLVTVSS
VL: DIQMTQSPSSLSASVGDRVTITCRASQSVSSAVAWYQQKPGKAPKLLIYSASSLYSGVPSRFSGSRSGTDFTLTISSLQPEDFATYYCQQGASEPITFGQGTKVEIK
notes: source: E. coli C43 (Pro+), purified (Protein L, Resource S)
With B1, the EC50 in assay [1] amounted to 17 nM.

B2: Synthetic acceptor octapeptide WEHI-1886493 (Ac-Pra-GSWAKWS-NH2) (peptide)
peptide: Ac-[Pra]GSWAKWS-NH2
SMILES: C#CC[C@H](NC(C)=O)C(=O)NCC(=O)N[C@@H](CO)C(=O)N[C@@H](Cc1c[nH]c2ccccc12)C(=O)N[C@@H](C)C(=O)N[C@@H](CCCCN)C(=O)N[C@@H](Cc1c[nH]c2ccccc12)C(=O)N[C@@H](CO)C(N)=O
notes: Eight residues in all: Pra (propargylglycine) followed by GSWAKWS; also called acceptor peptide; source: synthetic peptide
B2: the binding result in assay [2] was “binds”.
